Consider 1 molecule from patent US11123408B2, “Compositions and methods for treating nonsteroidal anti-inflammatory drug (NSAID) associated coagulopathy, thrombocytopenia, glanzmann's thrombasthenia, and/or thrombosis” (YALE UNIVERSITY, priority 2011, dated 2021).

A short description of this series: Ap3A hydrolysis by NPP enzymes (linked malachite green assay, absorbance change at 259 nm, HPLC). The format is biochemical. The method, then: NPP4 nucleotide substrates were identified by directly detecting the free phosphate (Pi) product using malachite green (ADP substrate) or by a linked hydrolysis assay with alkaline phosphatase combined with malachite green (lipid substrates and nucleotide substrates without terminal P1) to measure released Pi. 50 μM substrate P1 equivalents (e.g. 25 μM ADP) were treated with 50 nM NPP4 for 1 hr 37 min (lipids) or 3 hr 15 min (all other substrates). For substrates without terminal phosphates, 10 units of calf intestinal alkaline phosphatase (M0290S, 10,000 units/mL, New England Biolabs, Ipswich, Mass.) was added for a final reaction volume of 50 μL. 100 μL of malachite green (BIOMOL GREEN™, Enzo Life Sciences, Plymouth Meeting, Pa.) was added to quench the reactions. The amount of phosphate released was measured by absorbance at 620 nm by a Biotek Synergy Mx plate reader (Winooski, Vt.) in 96-well plates (3679, Corning Inc., Corning, N.Y.) and compared against a phosphate standard curve.
The kinetics of the steady state Ap3A/Ap4A cleavage by NPP4 was measured from time courses of absorbance change at 259 nm using a UV spectrophotometer with a 0.1 cm optical path length cuvette or a stopped-flow device with a 0.2 cm optical path length cell. The enzymology reactions in 50 mM Tris pH 8.0, 140 mM NaCl, 5 mM KCl, 1 mM MgCl2 and 1 mM CaCl2 were started by addition of 1 μM NPP4 to varying concentrations of Ap3A/Ap4A (up to 800 μM) solution (UV spectrophotometer) or by rapid mixing of NPP4 and Ap3A/Ap4A (stopped-flow). The substrate concentrations higher than 800 μM have absorption too high to be measured by a UV spectrophotometer and stopped-flow, and were therefore measured by HPLC. […] Therefore, the rate of a product production or enzyme turnover measured by the absorption change assay can be calculated by the rate of absorption change
[formula] according to the following formula;
[formula] where Δl is optical path length. The following absorption coefficients were used: Ap3A: 25.75 mM^−1 cm^−1. Ap4A: 25.4 mM^−1 cm^−1. AMP, ADP, and ATP: 15.4 mM^−1 cm^−1. ADP Receptor Inhibitor Assay for NPP4 Inhibition
The HPLC protocol used to measure Ap3A/Ap4A cleavage by NPP4 and for product identification is modified from that of Stocchi et al. (1985, Anal Biochem 146:118-24). The reactions containing varying concentrations of Ap3A/Ap4A in the same buffer as in the absorbance change assay were started by addition of 0.2-1 μM NPP4 and quenched at various time points by equal volume of 3 M formic acid, or 0.5 N KOH and re-acidified by glacial acetic acid to pH 6. The quenched reaction solution was diluted systematically and loaded a HPLC system (Waters, Milford Mass.) and substrates and products were monitored by UV absorbance at 254 or 259 nm. Substrates and products were separated on a C18, 5 μm 250×4.6 mm HPLC column (Higgins Analytical, Mountain View, Calif.), using 15 mM ammonium acetate pH 6.0 solution, with a 0% to 10% (or 20%) methanol gradient. The products and substrate were quantified according to the integration of their correspondent peaks and the formula:
[formula] where [substrate]0 is the initial substrate concentration. The extinction coefficients of Ap3A, Ap4A, AMP, ADP and ATP used in the formula were the same as those used in absorption change assay. If monitoring at 254 nm, substrate and product standards run on the same day as the reactions were used to convert integrated product/substrate peak areas to concentrations. […]

B1: NPP4: soluble recombinant extracellular domain of human NPP4 (NCBI AAH18054.1, residues 1-407 of SEQ ID NO:1), expressed in insect cells (protein, listed as Homo sapiens)
chain: MKLLVILLFSGLITGFRSDSSSSLPPKLLLVSFDGFRADYLKNYEFPHLQNFIKEGVLVEHVKNVFITKTFPNHYSIVTGLYEESHGIVANSMYDAVTKKHFSDSNDKDPFWWNEAVPIWVTNQLQENRSSAAAMWPGTDVPIHDTISSYFMNYNSSVSFEERLNNITMWLNNSNPPVTFATLYWEEPDASGHKYGPEDKENMSRVLKKIDDLIGDLVQRLKMLGLWENLNVIITSDHGMTQCSQDRLINLDSCIDHSYYTLIDLSPVAAILPKINRTEVYNKLKNCSPHMNVYLKEDIPNRFYYQHNDRIQPIILVADEGWTIVLNESSQKLGDHGYDNSLPSMHPFLAAHGPAFHKGYKHSTINIVDIYPMMCHILGLKPHPNNGTFGHTKCLLVDQWCINLPEA
As for B1, the “Ap3A cleavage / hydrolysis (qualitative)” value (linked assay or steady state enzymatic studies) is given as “detected cleavage”. For the same molecule, under “substrate Ap3A”, the “maximum catalytic turnover rate (kcat) for Ap3A” value is around 4 s⁻¹. Also, the “kcat, Ap3A Hydrolysis by NPP4” value (substrate Ap3A, steady state) worked out at 4.2 s^−1NPP4^−1. Further, the Km (substrate Ap3A, steady state, read-out: KM, Ap3A Hydrolysis by NPP4) was 843 µM.

Usually Km stands for the concentration of substrate that gives half-maximal velocity.
